B1: MLC018: fusion polypeptide SEQ ID NO: 265 conjugated with Moiety A at 52K of Linker (conjugate)
chain: HGEGTFTSDVSSYLEEQAAREFIAWLVRGGGGQEPGAQPGQEPGAQPGQEPGAQPGQEPGAQPGQEPGAQPGQEPGAQPGQEKGAQPGQEPGAQPGQEPGAQPGQEPGAQPARQGDHCPLGPGRCCRLHTVRASLEDLGWADWVLSPREVQVTMCIGACPSQFRAANLHAQIKTSLHRLRPDTVPAPCCVPASYNPMVLIQRTDTGVSLQTYDDLLARDCHCI
modifications: Moiety A conjugated at linker K52
B2: MLC046: fusion polypeptide SEQ ID NO: 329 conjugated with Moiety A at 60K of linker (conjugate)
chain: HGEGTFTSDVSSYLEEQAAREFIAWLVRGGGGQEPGAQPGQEPGAQPGQEPGAQPGQEPGAQPGQEPGAQPGQEPGAQPGAQPGAQPGAQKGAQPGAQPGAQPGAQPGAQPARQGDHCPLGPGRCCRLHTVRASLEDLGWADWVLSPREVQVTMCIGACPSQFRAANLHAQIKTSLHRLRPDTVPAPCCVPASYNPMVLIQRTDTGVSLQTYDDLLARDCHCI
modifications: Moiety A conjugated at linker K60
B3: MLC064: fusion polypeptide SEQ ID NO: 359 conjugated with Moiety A at 51K of Linker (conjugate)
chain: HGEGTFTSDVSSYLEEQAAREFIAWLVRGGGGQEPGAQPGQEPGAQPGQEPGAQPGQEPGAQPGQEPGAQPGQEPGAQPGAKPGAQPGAQPGAQPGAQPGAQPGAQPGAQPARQGDHCPLGPGRCCRLHTVRASLEDLGWADWVLSPREVQVTMCIGACPSQFRAANLHAQIKTSLHRLRPDTVPAPCCVPASYNPMVLIQRTDTGVSLQTYDDLLARDCHCI
modifications: Moiety A conjugated at linker K51
B4: MLC030: fusion polypeptide SEQ ID NO: 277 conjugated with Moiety A at 15K of Linker (conjugate)
chain: HGEGTFTSDVSSYLEEQAAREFIAWLVRGGGGQEPGQEPGQEPGQKPGQEPGQEPGQEPGQEPGAQPGAQPGAQPGAQPGAQPGAQPGAQPGAQPGAQPGAQPGAQPGAQPARQGDHCPLGPGRCCRLHTVRASLEDLGWADWVLSPREVQVTMCIGACPSQFRAANLHAQIKTSLHRLRPDTVPAPCCVPASYNPMVLIQRTDTGVSLQTYDDLLARDCHCI
modifications: Moiety A conjugated at linker K15
B5: MLC027: fusion polypeptide SEQ ID NO: 274 conjugated with Moiety A at 55K of Linker (conjugate)
chain: HGEGTFTSDVSSYLEEQAAREFIAWLVRGGGGAQPGAQPGAQPGAQPGAQPGAQPGAQPGAQPGQEPGAQPGQEPGAQPGQEPGQKPGQEPGQEPGQEPGQEPGAQPGAQPARQGDHCPLGPGRCCRLHTVRASLEDLGWADWVLSPREVQVTMCIGACPSQFRAANLHAQIKTSLHRLRPDTVPAPCCVPASYNPMVLIQRTDTGVSLQTYDDLLARDCHCI
modifications: Moiety A conjugated at linker K55
B6: MLC043: fusion polypeptide SEQ ID NO: 326 conjugated with Moiety A at 26K of GLP-1 (conjugate)
chain: HGEGTFTSDVSSYLEEQAAKEFIAWLVRGGGGQEPGAQPGQEPGAQPGQEPGAQPGQEPGAQPGQEPGAQPGQEPGAQPGAQPGAQPGAQPARQGDHCPLGPGRCCRLHTVRASLEDLGWADWVLSPREVQVTMCIGACPSQFRAANLHAQIKTSLHRLRPDTVPAPCCVPASYNPMVLIQRTDTGVSLQTYDDLLARDCHCI
modifications: Moiety A conjugated at K26
B7: MLC014: negative control, SEQ ID NO: 261: linker fused to N terminal of GDF15, CRM conjugated to lysine in the linker; GDF15 derivative (conjugate)
chain: SEPATSGQEKGQEPGQEPGQEPGQEPGQEPGAQPGAQPARQGDHCPLGPGRCCRLHTVRASLEDLGWADWVLSPREVQVTMCIGACPSQFRAANLHAQIKTSLHRLRPDTVPAPCCVPASYNPMVLIQRTDTGVSLQTYDDLLARDCHCI
modifications: CRM conjugated to linker lysine
notes: GDF15 derivative
B8: MLC012: fusion polypeptide SEQ ID NO: 259 conjugated with Moiety A at 12K of Linker (conjugate)
chain: HGEGTFTSDVSSYLEEQAAREFIAWLVRGGGGQEPGQEPGQEKGQEPGQEPGQEPGQEPGQEPGQEPGQEPARQGDHCPLGPGRCCRLHTVRASLEDLGWADWVLSPREVQVTMCIGACPSQFRAANLHAQIKTSLHRLRPDTVPAPCCVPASYNPMVLIQRTDTGVSLQTYDDLLARDCHCI
modifications: Moiety A conjugated at linker K12
B9: MLC045: fusion polypeptide SEQ ID NO: 328 conjugated with Moiety A at 1K and 55K of Linker (conjugate)
chain: HGEGTFTSDVSSYLEEQAAREFIAWLVRGGGKQEPGAQPGQEPGAQPGQEPGAQPGQEPGAQPGQEPGAQPGQEPGAQPGAQPGAKPGAQPGAQPGAQPGAQPGAQPGAQPARQGDHCPLGPGRCCRLHTVRASLEDLGWADWVLSPREVQVTMCIGACPSQFRAANLHAQIKTSLHRLRPDTVPAPCCVPASYNPMVLIQRTDTGVSLQTYDDLLARDCHCI
modifications: Moiety A conjugated at linker K1, K55

The values below come from patent US11453711B2, “Fusion proteins of GLP-1 and GDF15 and conjugates thereof” (BEIJING QL BIOPHARMACEUTICAL CO., LTD., priority 2019, dated 2022).

This experiment can be described thus: Body weight and food intake in C57BL/6 mice, fusion protein conjugates, 30 nmol/kg daily 10 days. It counts as in vivo. As to the method: 10 week old male C57BL/6 mice were injected everyday subcutaneously with 15 nmol/kg of the fusion protein conjugates (i.e., MLC002, MLC 004, MLC 005, MLC 006, MLC 007, MLC 008, and MLC 009) for 14 days. Food intake and body weight were measured daily and five animals were used for each treatment group. Body weight (BW) was monitored for each individual animal, but food intake for each group animals was measured together. Day 1 and Day 14 are first day and last day of molecule dosage. % BW loss=100*(BW on Day n-BW on Day 1)/(BW on Day 1). Cumulative food intake on Day n represents sum of food intake from Day 1 to Day n. Data are indicated as mean values and standard error (SEM) or pooled values. Statistical analysis was performed by One-way ANOVA. Body weight reduction on Day 11 is calculated by −1*(% BW loss−% BW loss of vehicle group); Cumulative food intake reduction is calculated by −100*(cumulative food intake-cumulative food intake of vehicle)/cumulative food intake of vehicle.
Data were calculated in the same way as described above. Day 1 and Day 10 are first day and last day of the administration.
MLC014 was used as a negative control. MLC014 has an amino acid sequence of SEQ ID NO: 261, which contains a linker fused to the N terminal of GDF15, with a CRM conjugated to the lysine residue in the linker. Tirzepatide was also used as a control.
Turning to Tirzepatide [reference compound], the “Body weight reduction at 30 nmol/kg (% reduction compared to vehicle)(Day11)” value was 10.5% and the “Cumulative food intake reduction at 30 nmol/kg (% reduction compared to vehicle)(Day11)” value is recorded as 23.0%.
As for B1, the “Body weight reduction at 30 nmol/kg (% reduction compared to vehicle)(Day11)” value amounted to 23.5% and the “Cumulative food intake reduction at 30 nmol/kg (% reduction compared to vehicle)(Day11)” value is reported as 48.1%.
In the same order, the values of B2 are 24.6% and 41.4%.
For the molecule B3, the “Body weight reduction at 30 nmol/kg (% reduction compared to vehicle)(Day11)” value is reported as 24.0% and the “Cumulative food intake reduction at 30 nmol/kg (% reduction compared to vehicle)(Day11)” value amounted to 43.6%.
With B4, the “Body weight reduction at 30 nmol/kg (% reduction compared to vehicle)(Day11)” value is 22.0% and the “Cumulative food intake reduction at 30 nmol/kg (% reduction compared to vehicle)(Day11)” value was determined as 29.1%.
For B5, the “Body weight reduction at 30 nmol/kg (% reduction compared to vehicle)(Day11)” value is 19.1% and the “Cumulative food intake reduction at 30 nmol/kg (% reduction compared to vehicle)(Day11)” value turned out to be 40.7%.
In the same order, the values of B6 are 17.4% and 30.5%.
In the same order, the values of B7 are 9.5% and 27.3%.
Regarding B8, the “Body weight reduction at 30 nmol/kg (% reduction compared to vehicle)(Day11)” value was determined as 30.6% and the “Cumulative food intake reduction at 30 nmol/kg (% reduction compared to vehicle)(Day11)” value was determined as 37.2%.
As to B9, the “Body weight reduction at 30 nmol/kg (% reduction compared to vehicle)(Day11)” value was 20.6% and the “Cumulative food intake reduction at 30 nmol/kg (% reduction compared to vehicle)(Day11)” value is 27.8%.
